Results from US20260194540A1 (ARIZONA BOARD OF REGENTS ON BEHALF OF ARIZONA STATE …, published 2026).

Target: T1, TDP-43 from healthy human brain tissue (human, UniProt Q13148 1-414)
T1 construct: also called healthy TDP-43; healthy IP TDP-43
Assay: phage ELISA on human brain tissue

T1 sequence (Q13148 whole entry): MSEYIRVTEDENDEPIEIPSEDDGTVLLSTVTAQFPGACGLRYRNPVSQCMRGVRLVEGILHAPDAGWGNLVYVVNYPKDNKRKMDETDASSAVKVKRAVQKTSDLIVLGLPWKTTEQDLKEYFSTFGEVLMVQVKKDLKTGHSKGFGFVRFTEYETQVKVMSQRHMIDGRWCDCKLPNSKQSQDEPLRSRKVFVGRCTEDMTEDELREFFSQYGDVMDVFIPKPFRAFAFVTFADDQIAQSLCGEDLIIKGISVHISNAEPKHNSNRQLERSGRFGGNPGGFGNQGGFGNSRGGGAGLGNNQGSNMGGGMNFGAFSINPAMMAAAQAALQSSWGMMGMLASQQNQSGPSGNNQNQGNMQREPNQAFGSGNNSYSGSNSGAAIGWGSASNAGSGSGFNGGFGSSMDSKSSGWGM

B1: TDP-43 monomer clone #5 (scFv)
scFv: MAEVQLLESGGGLVRPGGSLRLSCAASGFTFSSYAMSWVRQAPGKGLEWVSDIANTGDATGYADSVKGRFTISRDNSKNTLYLQMNSLRAEDTAVYYCAKTGAAFDYWGQGTLVTVSSGGGGSGGGGSGGGGSTDIQMTQSPSSLSASVGDRVTITCRASQSISSYLNWYQQKPGKAPKLLIYAASTLQSGVPSRFSGSGSGTDFTLTISSLQPEDFATYYCQQSSSDPATFGQGTKVEIKRAA
notes: Tested as scFv attached to a phage particle, tagged with a signal moiety when used for detection; also called monomer phage #5
**Q.** Does B1 bind?
**A.** binds
